This data set is described as follows: self-splicing fitness, log relative to wild type (ln ratio); higher = more splicing; Tetrahymena group I intron in knt gene, E. coli kanamycin selection, DiMSum; sequences stand for … in CUCUCU…GGAGGGAAAAGUUAUCAGGCAUGCACCUGGUAGCUAGUCUUUAAACCAAUAGAUUGCAUCGGUUUAAAAGGCAAGACCGUCAAAUUGCGGGAAAGGGGUCAACAGCCGUUCAGUACCAAGUCUCAGGGGAAACUUUGAGAUGGCCUUGCAAAGGGUAUGGUAAUAAGCUGACGGACAUGGUCCUAACCACGCAGCCAAGUCCUAAGUCAACAGAUCUUCUGUUGAUAUGGAUGCAGUUCACAGACUAAAUGUCGGUCGGGGAAGAUGUAUUCUUCUCAUAAGAUAUAGUCGGACCUCUCCUUAAUGGGAGCUAGCGGAUGAAGUGAUGCAACACUGGAGCCGCUGGGAACUAAUUUGUAUGCGAAAGUAUAUUGAUUAGUUUUGGAGUACUCGUGGUCG
The essentials: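 DiMSum derived fitness as the error-weighted combination of fold changes across replicates, kanamycin versus no kanamycin, normalised to wild type. E. coli BL21(DE3) held the library, which randomised all eight P1ex-region intron nucleotides within the knt kanamycin-resistance gene on pET-22b(+). Six replicate transformations grew overnight at 37°C or 30°C on LB agar with or without 25 μg/mL kanamycin, also containing 100 μg/mL carbenicillin, 50 μM IPTG and 0.2% rhamnose, and pooled colonies were amplicon-sequenced on an Illumina HiSeq 2500.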

± gives the uncertainty stated by the source.

On to GGCAAGCAAUAUUACGAAGU, for which the “self-splicing fitness (ln)” value (30 °C) is -1.94 ± 0.093 and the “self-splicing fitness (ln)” value (37 °C) was -1.89 ± 0.12.
For UACCAGCAAUAUUACGGCCU, in that order: -0.232 ± 0.078 and 0.212 ± 0.094.
In the same order, the values of GGGCAGCAAUAUUACGUCUA are 0.309 ± 0.1 and -1.04 ± 0.1.
On to GACCAGCAAUAUUACGAAAA, for which the “self-splicing fitness (ln)” value is -2.05 ± 0.12 (30 °C) and -0.391 ± 0.11 (37 °C).
With CCGUAGCAAUAUUACGAUCA, the “self-splicing fitness (ln)” value runs as follows: (30 °C) -2.86 ± 0.32; (37 °C) -2.34 ± 0.35.
CUGAAGCAAUAUUACGUAGU: the “self-splicing fitness (ln)” value (30 °C) was -4.3 ± 0.23 and the “self-splicing fitness (ln)” value (37 °C) was -3.22 ± 0.26.
On to UGUUAGCAAUAUUACGUUAC, for which the “self-splicing fitness (ln)” value (30 °C) was -1.97 ± 0.43.
As to UGUUAGCAAUAUUACGAGCA, the “self-splicing fitness (ln)” value is -0.725 ± 0.12 (30 °C) and -0.136 ± 0.17 (37 °C).
With AGAUAGCAAUAUUACGGGGC, the “self-splicing fitness (ln)” value reads like this: (30 °C) -2.65 ± 0.2; (37 °C) -3.29 ± 0.37.
Turning to ACCUAGCAAUAUUACGCCAA, the “self-splicing fitness (ln)” value is, setting by setting: (30 °C) -3.4 ± 0.27; (37 °C) -2.09 ± 0.23.
Take UCACAGCAAUAUUACGUAGA: the “self-splicing fitness (ln)” value runs as follows: (30 °C) -1.09 ± 0.063; (37 °C) -0.0941 ± 0.075.
For UUCAAGCAAUAUUACGGUAC, in that order: -2.8 ± 0.2 and -2.71 ± 0.36.
For the sequence CUAUAGCAAUAUUACGGACU, the “self-splicing fitness (ln)” value (37 °C) is -1.89 ± 0.31.
As to CGCUAGCAAUAUUACGGUAA, the “self-splicing fitness (ln)” value is, setting by setting: (30 °C) -1.73 ± 0.1; (37 °C) -2.12 ± 0.11.
In the same order, the values of UUCAAGCAAUAUUACGAUUC are -2.57 ± 0.15 and -2.22 ± 0.19.
In the same order, the values of CGGCAGCAAUAUUACGACCA are -0.307 ± 0.1 and 0.682 ± 0.14.
For GGUAAGCAAUAUUACGCUGA, in that order: -2.82 ± 0.28 and -0.411 ± 0.22.
In the case of AGGUAGCAAUAUUACGAUAA, the “self-splicing fitness (ln)” value (30 °C) was -1.65 ± 0.018 and the “self-splicing fitness (ln)” value (37 °C) was -0.626 ± 0.035.
With GAAAAGCAAUAUUACGAGAC, the “self-splicing fitness (ln)” value was -2.59 ± 0.29 (30 °C) and -0.985 ± 0.16 (37 °C).
As to UUGAAGCAAUAUUACGCUCG, the “self-splicing fitness (ln)” value came out at 0.0719 ± 0.11 (30 °C) and 0.419 ± 0.14 (37 °C).
In the same order, the values of GGAUAGCAAUAUUACGACAU are -0.425 ± 0.014 and -0.0181 ± 0.034.
For AGCGAGCAAUAUUACGAUUC, in that order: -1.93 ± 0.16 and -2.02 ± 0.27.
Turning to GGGUAGCAAUAUUACGAUAU, the “self-splicing fitness (ln)” value is -0.506 ± 0.11 (30 °C) and -0.0772 ± 0.12 (37 °C).
GGUGAGCAAUAUUACGGAGA: where the note is “30 °C”, the “self-splicing fitness (ln)” value was -1.36 ± 0.37.
ACCGAGCAAUAUUACGCUGA: the “self-splicing fitness (ln)” value (30 °C) was -3.32 ± 0.24 and the “self-splicing fitness (ln)” value (37 °C) was -1.24 ± 0.16.
For AUCUAGCAAUAUUACGAAUU, in that order: -2.94 ± 0.18 and -1.74 ± 0.19.
Consider GUGCAGCAAUAUUACGCGCA, for which the “self-splicing fitness (ln)” value (30 °C) is -2.62 ± 0.27.
Consider AAGCAGCAAUAUUACGCAGG, for which the “self-splicing fitness (ln)” value was -2.34 ± 0.14 (30 °C) and -1.13 ± 0.11 (37 °C).
With UAGCAGCAAUAUUACGCAUU, the “self-splicing fitness (ln)” value runs as follows: (30 °C) -2.38 ± 0.13; (37 °C) -1.08 ± 0.11.
GUUGAGCAAUAUUACGUUAG: the “self-splicing fitness (ln)” value runs as follows: (30 °C) -4.58 ± 0.41; (37 °C) -2.82 ± 0.43.
In the same order, the values of UAUUAGCAAUAUUACGCUUA are -1.05 ± 0.2 and -0.89 ± 0.25.
Turning to CUGAAGCAAUAUUACGAAAC, for the setting “30 °C”, the “self-splicing fitness (ln)” value was -3.39 ± 0.25.
Take CGUCAGCAAUAUUACGUGUC: the “self-splicing fitness (ln)” value was -3.72 ± 0.17 (30 °C) and -2.96 ± 0.19 (37 °C).
As to UCGCAGCAAUAUUACGGCCC, the “self-splicing fitness (ln)” value (37 °C) is -2.41 ± 0.41.
As to UUUUAGCAAUAUUACGAAUA, the “self-splicing fitness (ln)” value reads like this: (30 °C) -1.26 ± 0.25; (37 °C) -1.04 ± 0.16.
On to UGAUAGCAAUAUUACGAGUC, for which the “self-splicing fitness (ln)” value is, setting by setting: (30 °C) -3.08 ± 0.22; (37 °C) -3.08 ± 0.4.
In the same order, the values of CGAUAGCAAUAUUACGGAAA are -3.34 ± 0.24 and -1.53 ± 0.21.
On to AGUCAGCAAUAUUACGGAGC, for which the “self-splicing fitness (ln)” value was -2.57 ± 0.12 (30 °C) and -1.74 ± 0.13 (37 °C).
For UCUUAGCAAUAUUACGCUAG, in that order: -2.15 ± 0.19 and -2.47 ± 0.28.
CCUUAGCAAUAUUACGUGGG: the “self-splicing fitness (ln)” value is, setting by setting: (30 °C) -2.78 ± 0.16; (37 °C) -2.35 ± 0.16.
As to AUGAAGCAAUAUUACGUGUG, the “self-splicing fitness (ln)” value (30 °C) was -1.18 ± 0.059 and the “self-splicing fitness (ln)” value (37 °C) is -0.763 ± 0.078.
For the sequence UAUUAGCAAUAUUACGUCAU, the “self-splicing fitness (ln)” value (30 °C) was -3.69 ± 0.31 and the “self-splicing fitness (ln)” value (37 °C) was -2.81 ± 0.27.
Consider UAAAAGCAAUAUUACGGACA, for which the “self-splicing fitness (ln)” value reads like this: (30 °C) -0.712 ± 0.082; (37 °C) 0.302 ± 0.11.
With CGCGAGCAAUAUUACGCAGG, the “self-splicing fitness (ln)” value is -2.68 ± 0.13 (30 °C) and -1.88 ± 0.15 (37 °C).
Consider GGGAAGCAAUAUUACGCGAG, for which the “self-splicing fitness (ln)” value was -1.06 ± 0.33 (30 °C) and -1.27 ± 0.47 (37 °C).
In the case of AGUAAGCAAUAUUACGGGUA, the “self-splicing fitness (ln)” value reads like this: (30 °C) -2.7 ± 0.15; (37 °C) -1.56 ± 0.13.
As for ACAGAGCAAUAUUACGCGUU, the “self-splicing fitness (ln)” value (37 °C) is -1.16 ± 0.29.
GUCAAGCAAUAUUACGAAGG: the “self-splicing fitness (ln)” value (30 °C) is -4.64 ± 0.2 and the “self-splicing fitness (ln)” value (37 °C) was -3.95 ± 0.36.
In the case of GGAUAGCAAUAUUACGAUUC, the “self-splicing fitness (ln)” value by setting is: (30 °C) -2.52 ± 0.15; (37 °C) -0.731 ± 0.16.
As to UACUAGCAAUAUUACGGCUC, the “self-splicing fitness (ln)” value reads like this: (30 °C) -1.67 ± 0.19; (37 °C) -0.765 ± 0.18.
With UUAAAGCAAUAUUACGUUCC, the “self-splicing fitness (ln)” value was -2.36 ± 0.22 (30 °C) and -0.947 ± 0.21 (37 °C).
For GGAUAGCAAUAUUACGGAGC, the “self-splicing fitness (ln)” value runs as follows: (30 °C) -3.05 ± 0.26; (37 °C) -2.51 ± 0.25.
As to GCGCAGCAAUAUUACGUCUC, the “self-splicing fitness (ln)” value reads like this: (30 °C) -0.0041 ± 0.098; (37 °C) 0.525 ± 0.12.
ACACAGCAAUAUUACGGGUU: the “self-splicing fitness (ln)” value is -2.86 ± 0.077 (30 °C) and -1.85 ± 0.082 (37 °C).
In the same order, the values of GCUAAGCAAUAUUACGAACU are -0.229 ± 0.079 and 0.203 ± 0.095.
In the same order, the values of UAGCAGCAAUAUUACGUAUA are -1.89 ± 0.096 and -0.924 ± 0.12.
For UGAAAGCAAUAUUACGUCUU, in that order: -1.69 ± 0.074 and -0.659 ± 0.073.
For UAGUAGCAAUAUUACGCAUC, the “self-splicing fitness (ln)” value (30 °C) is -2.64 ± 0.28.
As to UUAUAGCAAUAUUACGGGUG, the “self-splicing fitness (ln)” value is, setting by setting: (30 °C) -1.68 ± 0.1; (37 °C) -0.829 ± 0.12.
For CAACAGCAAUAUUACGCGCA, in that order: -0.857 ± 0.085 and 0.0215 ± 0.087.
Regarding GUGAAGCAAUAUUACGUAGU, the “self-splicing fitness (ln)” value was -2.19 ± 0.064 (30 °C) and -1.1 ± 0.08 (37 °C).
For UCACAGCAAUAUUACGUUGG, in that order: -2.84 ± 0.11 and -2.81 ± 0.18.
For GAACAGCAAUAUUACGGCGU, in that order: -0.302 ± 0.083 and 0.212 ± 0.097.
GUCGAGCAAUAUUACGCAUG: the “self-splicing fitness (ln)” value is -3.47 ± 0.25 (30 °C) and -2.43 ± 0.22 (37 °C).
For ACUCAGCAAUAUUACGUGAG, in that order: -1.55 ± 0.062 and -0.663 ± 0.082.
GACUAGCAAUAUUACGAUUU: the “self-splicing fitness (ln)” value stood at 0.261 ± 0.061 (30 °C) and 0.116 ± 0.077 (37 °C).
For AACCAGCAAUAUUACGUUAC, in that order: -2.93 ± 0.14 and -2.52 ± 0.17.
In the same order, the values of UAAUAGCAAUAUUACGCGCG are -0.452 ± 0.11 and -0.333 ± 0.14.
As to GCGCAGCAAUAUUACGGUCA, the “self-splicing fitness (ln)” value (30 °C) was -1.41 ± 0.12 and the “self-splicing fitness (ln)” value (37 °C) is -1.49 ± 0.099.
In the same order, the values of AGGAAGCAAUAUUACGAGGG are -3.63 ± 0.26 and -3.07 ± 0.29.
On to UUAAAGCAAUAUUACGCGCC, for which the “self-splicing fitness (ln)” value was -0.43 ± 0.15 (30 °C) and -0.00103 ± 0.24 (37 °C).
AAUCAGCAAUAUUACGGAUU: the “self-splicing fitness (ln)” value reads like this: (30 °C) -2.89 ± 0.15; (37 °C) -2.74 ± 0.16.
For the sequence UUACAGCAAUAUUACGUCUC, the “self-splicing fitness (ln)” value runs as follows: (30 °C) -2.98 ± 0.28; (37 °C) -2.3 ± 0.22.
As to CGGAAGCAAUAUUACGAGUG, the “self-splicing fitness (ln)” value is, setting by setting: (30 °C) -0.361 ± 0.05; (37 °C) -0.0668 ± 0.075.
For CCGUAGCAAUAUUACGGACU, in that order: -4.02 ± 0.22 and -2.54 ± 0.2.
Turning to AACCAGCAAUAUUACGCGAA, the “self-splicing fitness (ln)” value is, setting by setting: (30 °C) -1.11 ± 0.06; (37 °C) -0.99 ± 0.076.
For the sequence UGAGAGCAAUAUUACGGAGU, the “self-splicing fitness (ln)” value (30 °C) is -2.89 ± 0.29.
For CCGCAGCAAUAUUACGGCAC, the “self-splicing fitness (ln)” value by setting is: (30 °C) -2.89 ± 0.21; (37 °C) -2.91 ± 0.25.

The values are drawn from the supplement of paper PMC7877785.
